According to patent publication US20190161551A1 (Regeneron, published 2019):
Blank lines part the entries; values can stand above or below the binder they belong to.

Tests used:
[1] = molecular target: T1, mouse TrkB extracellular domain expressed with a C-terminal myc-myc-hexahistidine tag (mouse, UniProt P15209 32-429); experiment: SPR Biacore T200, mAb captured (anti-mFc), 25C
T1 construct: also called mTrkB.mmH; mTRKB.mmH
Experimental: (§1) Equilibrium dissociation constants (KD values) for TrkB binding to purified anti-TrkB monoclonal antibodies were determined using a real-time surface plasmon resonance biosensor using a Biacore T200 instrument. All binding studies were performed in 10 mM Hepes pH 7.4, 150 mM NaCl, 3 mM EDTA, and 0.05% v/v Surfactant Tween-20 (HBS-ET running buffer) at 25° C. The Biacore sensor surface was first derivatized by amine coupling with rabbit anti-mouse Fc polyclonal antibody (GE Healthcare #BR-1008-38) to capture anti-TrkB monoclonal antibodies. Binding studies were performed on the following TrkB reagents; human TrkB extracellular domain expressed with a C-terminal myc-myc-hexahistidine tag (hTrkB.mmH; SEQ ID NO: 76; NP_001018074.1), mouse TrkB extracellular domain expressed with a C-terminal myc-myc-hexahistidine tag (mTRKB.mmH; SEQ ID NO: 79; NP_001020245), and rat TrkB extracellular domain expressed with a C-terminal myc-myc-hexahistidine tag (rTRKB.mmH; SEQ ID NO: 84; XP_002721319.1). […] Kinetic association (kₐ) and dissociation (kd) rate constants were determined by fitting the real-time binding sensorgrams to a 1:1 binding model with mass transport limitation using Scrubber 2.0c curve-fitting software. Binding dissociation equilibrium constants (KD) and dissociative half-lives (t½) were calculated from the kinetic rate constants as: […]

[2] = molecular target: T2, rat TrkB extracellular domain expressed with a C-terminal myc-myc-hexahistidine tag (rat, UniProt Q63604 32-429); experiment: SPR Biacore T200, mAb captured (anti-mFc), 25C
T2 construct: also called rTrkB.mmH; rTRKB.mmH
Experimental: as §1

[3] = molecular target: T3, human TrkB extracellular domain expressed with a C-terminal myc-myc-hexahistidine tag (human, UniProt Q16620 32-430); experiment: SPR Biacore T200, mAb captured (anti-mFc), 25C
T3 construct: also called hTrkB.mmH; hTRKB.mmH
Experimental: as §1

[4] = molecular target: T1, mouse TrkB extracellular domain …; experiment: SPR, mAb captured (anti-mFc), 25C
Experimental: (§2) Equilibrium dissociation constants (KD values) for TrkB binding to purified anti-TrkB monoclonal antibodies were determined using a real-time surface plasmon resonance biosensor using a Biacore 4000 instrument. All binding studies were performed in 10 mM Hepes pH 7.4, 150 mM NaCl, 3 mM EDTA, and 0.05% v/v Surfactant Tween-20 (HBS-ET running buffer) at 25° C. and 37° C. […] Binding studies were performed on following TrkB reagents; human TrkB extracellular domain expressed with a C-terminal myc-myc-hexahistidine tag (hTRKB.mmH; SEQ ID NO: 76; Accession number NP_001018074.1), mouse TrkB extracellular domain expressed with a C-terminal myc-myc-hexahistidine tag (mTRKB.mmH; SEQ ID NO: 79; Accession number NP_001020245), rat TrkB extracellular domain expressed with a C-terminal myc-myc-hexahistidine tag (rTRKB.mmH; SEQ ID NO: 84; Accession number NP_036863.1), and human TrkB extracellular domain expressed with a C-terminal mouse IgG2a Fc tag (hTrkB-mFc; SEQ ID NO: 77; Accession number NP_001018074.1). […] Kinetic association (kₐ) and dissociation (kd) rate constants were determined by fitting the real-time binding sensorgrams to a 1:1 binding model with mass transport limitation using Scrubber 2.0c curve-fitting software. Binding dissociation equilibrium constants (KD) and dissociative half-lives (t½) were calculated from the kinetic rate constants as: […]

[5] = molecular target: T2, rat TrkB extracellular domain expressed …; experiment: SPR, mAb captured (anti-mFc), 25C
Experimental: as §2

[6] = molecular target: T3, human TrkB extracellular domain …; experiment: SPR, mAb captured (anti-mFc), 25C
Experimental: as §2

[7] = molecular target: T4, human TrkB extracellular domain expressed with a C-terminal mouse IgG2a Fc tag (human); experiment: SPR, mAb captured (anti-mFc), 25C
T4 construct: also called hTrkB-mFc; hTrkB.mFc
Experimental: as §2

[8] = molecular target: T1, mouse TrkB extracellular domain …; experiment: SPR, mAb captured (anti-mFc), 37C
Experimental: as §2

[9] = molecular target: T2, rat TrkB extracellular domain expressed …; experiment: SPR, mAb captured (anti-mFc), 25C; 25 C; rTrkB.mmH
Experimental: as §2, with “All” for “Equilibrium dissociation constants (KD values) for TrkB binding to purified anti-TrkB monoclonal antibodies were determined using a real-time surface plasmon resonance biosensor using a Biacore 4000 instrument. All”

T4 sequence (chain, as listed by the source limits assumed): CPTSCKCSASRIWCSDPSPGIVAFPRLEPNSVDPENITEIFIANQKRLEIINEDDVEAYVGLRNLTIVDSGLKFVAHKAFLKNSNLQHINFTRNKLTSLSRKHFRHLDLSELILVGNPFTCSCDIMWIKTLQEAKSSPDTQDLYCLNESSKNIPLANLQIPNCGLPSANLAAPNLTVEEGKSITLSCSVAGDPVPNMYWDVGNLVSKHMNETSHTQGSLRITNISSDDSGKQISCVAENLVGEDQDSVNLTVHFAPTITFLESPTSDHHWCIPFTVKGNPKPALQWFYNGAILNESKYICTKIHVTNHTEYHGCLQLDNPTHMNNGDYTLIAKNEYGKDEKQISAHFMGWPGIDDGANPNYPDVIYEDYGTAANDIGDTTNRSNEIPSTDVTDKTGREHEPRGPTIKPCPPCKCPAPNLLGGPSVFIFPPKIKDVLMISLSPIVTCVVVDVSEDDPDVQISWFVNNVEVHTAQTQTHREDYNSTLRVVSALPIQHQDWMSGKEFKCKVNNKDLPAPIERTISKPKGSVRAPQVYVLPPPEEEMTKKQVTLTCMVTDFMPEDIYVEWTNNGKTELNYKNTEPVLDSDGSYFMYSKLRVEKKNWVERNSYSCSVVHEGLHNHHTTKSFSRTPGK
T2 sequence (Q63604 other isoform, or with tags, fused parts or gaps): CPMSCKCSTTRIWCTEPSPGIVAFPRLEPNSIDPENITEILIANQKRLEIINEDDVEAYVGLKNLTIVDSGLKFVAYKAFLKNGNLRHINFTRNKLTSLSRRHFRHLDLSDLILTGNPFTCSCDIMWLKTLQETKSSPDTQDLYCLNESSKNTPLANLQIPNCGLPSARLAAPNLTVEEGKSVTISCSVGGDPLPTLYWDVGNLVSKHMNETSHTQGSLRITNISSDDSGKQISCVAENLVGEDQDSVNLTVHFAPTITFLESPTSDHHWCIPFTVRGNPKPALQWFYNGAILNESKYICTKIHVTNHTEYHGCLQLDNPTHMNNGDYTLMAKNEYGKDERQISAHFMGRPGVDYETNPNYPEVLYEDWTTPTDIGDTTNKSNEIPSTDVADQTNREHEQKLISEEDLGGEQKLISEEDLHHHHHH
T1 sequence (P15209 other isoform, or with tags, fused parts or gaps): as the sequence (Q63604 other isoform, or with tags, fused parts or gaps) above, with M3T, T9S, T10A, I32V, K63R, G84S, T153M, I185L, T394S counted along it
T3 sequence (Q16620 other isoform, or with tags, fused parts or gaps): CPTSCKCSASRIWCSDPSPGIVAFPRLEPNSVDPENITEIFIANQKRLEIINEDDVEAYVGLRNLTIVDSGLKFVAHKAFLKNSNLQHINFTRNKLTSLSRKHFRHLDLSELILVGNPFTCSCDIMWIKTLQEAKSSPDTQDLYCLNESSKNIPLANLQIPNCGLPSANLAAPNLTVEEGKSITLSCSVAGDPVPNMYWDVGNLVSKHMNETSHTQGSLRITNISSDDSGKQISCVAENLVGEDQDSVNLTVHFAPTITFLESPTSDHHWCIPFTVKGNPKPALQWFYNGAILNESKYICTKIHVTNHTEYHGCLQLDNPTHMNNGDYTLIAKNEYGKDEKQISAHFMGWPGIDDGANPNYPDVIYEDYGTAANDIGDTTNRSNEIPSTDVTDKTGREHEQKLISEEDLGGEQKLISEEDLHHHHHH

- 90 nM TrkB.mmH Bound (RU) [1]: 32 RU
- Kd [1]: 32.4 nM
- koff [1]: 0.00372 s⁻¹
- kon [1]: 115000 M⁻¹ s⁻¹
- t½ [1]: 3.1 min
- 90 nM rTrkB.mmH Bound (RU) [2]: 33 RU
- Kd [2]: 26.9 nM
- koff [2]: 0.00398 s⁻¹
- kon [2]: 148000 M⁻¹ s⁻¹
- t½ [2]: 2.9 min
- 90nM hTrkB.mmH Bound (RU) [3]: -2 RU
B1: M2aM14179N (antibody, mouse IgG2a, kappa, V domains shown)
VH: EVQLQQSGPELVKPGASVKISCKASGYTLTDYYMNWVKQSHGKSLEWIGDINPNNGGTSYNQKFKGKATLTVDKSSSTAYMELRSLTSEDSAVYYCARGAYYSNYFDYWGQGTTLTVSS
VL: DIVMSQSPSSLAVSAGEKVTMSCKSSQSLLNSRTRKNYLAWYQQKPGQSPKLLIYWASTRESGVPDRFTGSGSGTDFTLTISSVQAEDLAVYYCKQSYILFTFGSGTQLEIKR
notes: Anti-mouse TrkB antibody from hybridoma, mouse IgG2a Fc; also called surrogate anti-mouse TrkB antibody

- 90 nM TrkB.mmH Bound (RU) [1]: 33 RU
- Kd [1]: 8.49 nM
- koff [1]: 0.00063 s⁻¹
- kon [1]: 74100 M⁻¹ s⁻¹
- t½ [1]: 18 min
- 90 nM rTrkB.mmH Bound (RU) [2]: 33 RU
- Kd [2]: 8 nM
- koff [2]: 0.000632 s⁻¹
- kon [2]: 79000 M⁻¹ s⁻¹
- t½ [2]: 18 min
- 90nM hTrkB.mmH Bound (RU) [3]: 0 RU
- binding result [3]: no binding (tested: 90 nM)
B2: M2aM14173N (antibody, mouse IgG2a, kappa, V domains shown)
VH: NVSLVESGGGSVKPGGSLQLSCAASGFTFSSSAMSWIRQTPEMRLEWVATISDRGSYTYYPDSVEGRFTISRDNAKNILYLQMSHLMSEDTAMYYCARGKGEKAYYTAFFAYWGQGSLVTVSA
VL: DIQMTQSPASLSASVGETVTITCRASENIYSYLAWYQQKPGKSPHLLVHNAETLAEGVPSRFSGSGSGPQFSLKINSLQPGDSGTYYCQHHYSSPWTFGGGTKLEIKR
notes: as for B1

- Kd [4]: 40.8 nM
- koff [4]: 0.00168 s⁻¹
- kon [4]: 41200 M⁻¹ s⁻¹
- t½ [4]: 7 min
- Kd [5]: 31 nM
- koff [5]: 0.0016 s⁻¹
- kon [5]: 51600 M⁻¹ s⁻¹
- t½ [5]: 7 min
- Kd [6]: 41.3 nM
- koff [6]: 0.00192 s⁻¹
- kon [6]: 46500 M⁻¹ s⁻¹
- t½ [6]: 6 min
- Kd [7]: 1.09 nM
- koff [7]: 9.55e-05 s⁻¹
- kon [7]: 88000 M⁻¹ s⁻¹
- t½ [7]: 121 min
- Kd [8]: 94.1 nM
- koff [8]: 0.00696 s⁻¹
- kon [8]: 74000 M⁻¹ s⁻¹
- t½ [8]: 1.7 min
- Kd [9]: 31.8 nM
B3: H1M8037C (antibody, mouse IgG1, kappa, V domains shown)
VH: QVQLVQSGAEVKKPGASVKVSCKASGYTFTNYDIIWVRQAPGQGLEWMGYINPYNDGTKYNEKFKGRVTMTRDTSTSTVYMELSSLRSEDTAVYYCARLLKYRRFRYYAIDYWGQGTTVTVSS
VL: DIQMTQSPSSLSASVGDRVTITCRTSENVYSNLAWYQQKPGKAPKLLIYAASNLQSGVPSRFSGSGSGTDYTFTISSLQPEDIATYYCQHFWGSPFTFGQGTKLEIKR
notes: captured by anti-mFc in SPR; also called Comparator; comparator anti-TrkB monoclonal antibody
